Assay results published in US9066986B2, “Anti-CEACAM6 antibodies and uses thereof” (National Research Council of Canada, priority 2010, dated 2015).

How the values were obtained:
MMP-2 = experiment: Gelatin zymography of conditioned media from treated BxPC3 cells; type: cell-based, human
Description: (§1) Gelatin zymography is used to detect the activity of gelatinases, namely, matrix metalloproteinases MMP-2 and MMP-9 (28).
(§2) The medium aliquots were taken from BxPC3 cultures at the time the proliferation assays (Example 9) were performed. For evaluation of dose-dependence effect, antibodies and gemcitabine were used at concentrations of 0.4-25 μM and 0.4-50 nM, respectively. The media were applied to a 10% sodium dodecyl sulfate-polyacrylamide gel electrophoresis gel (SDS-PAGE) that was supplemented with 1.5 mg/ml gelatin. The gel was run at 150 V until the bromophenol blue dye reached the bottom of the gel. SDS was removed from the gel by washing the gel four times with 2.5% Triton X-100 for 30 min at room temperature with gentle shaking using an orbital shaker (28). The gel was then incubated overnight at 37° C. in development buffer comprising 50 mM Tris-HCl, 0.2 M NaCl, 5 mM CaCl2, 5 mM ZnCl2, 0.02% Brij-35, and 0.05% NaN3 at pH 7.4. Gelatinase-digested gelatine-supplemented gels were stained with Coomassie blue. Clean bands produced by MMP-2 and MMP-9 activity were visible against the blue background after de-staining. The relative activities of the gelatinases were determined by using a densitometer (AlphaView, Fluor Chem SP, Alpha Innotech Corporation, San Leandro, Calif., USA).

MMP-9 = experiment: as above; type: cell-based, human; settings: for effect on MMP-9 activity: media from treated BxPC3 cells
Description: as §1, §2

BxPC3 cells [1] = experiment: Matrigel invasion assay; type: cell-based, human; settings: for invasiveness of treated cells decreased to: 40 μM, 20 hrs, normalized to non-treated control
Description: Matrigel invasion assay is designed to evaluate the capability of cells to invade into matrigel, an indication of the capacity to metastasize.
The assay was carried out by using bio-coated Matrigel invasion chambers (BD Biosciences, Bedford, Mass.). […] Only cells that could digest the matrix could migrate through the pores. […] The cells were re-suspended in RPMI medium and seeded on the tops of insert wells at 1×10^5 cells/well density and cultured at 37° C. in a humidified CO2 chamber. After 20 hrs, the non-invasive cells were scrubbed from the top of the insert well using a cotton-swap. The invasive cells on the bottom surface were stained with Calcein AM (Invitrogen) and were photographed with an Olympus BX51 microscope. All experiments were performed in triplicate.

HUVECs = experiment: In vitro capillary formation assay with conditioned media of treated BxPC3 cells; type: cell-based, human; settings: for inhibition of tubule formation (endothelial cell angiogenesis): HUVEC in conditioned media from BxPC3 cells treated 24 hrs, 16 h culture
Source text: Angiogenesis is another critical step in the progression of pancreatic cancer. Relatively complex and dense micro-vessels are localized in pancreatic cancer tissue. Highly vascular tumors are associated with an increased risk of hepatic metastasis and a poor survival rate (Semenza, 2003). Anti-angiogenesis is a valid strategy when employing pancreatic cancer target therapy. Thus, the in vitro capillary formation assay was used to test the ability of conditioned media of sdAb-treated BxPC3 cells to inhibit HUVECs angiogenesis.
The matrix was then polymerized at 37° C. for 30 min. […] HUVEC cells were then seeded onto the polymerized matrix at 5×10^4 cells per well. The cells were cultured at 37° C. for 16 h then stained with Calcein AM (Invitrogen) for 30 min. Photographs were taken at 100× magnification employing fluorescence microscopy (Olympus BX51). Three fields that were randomly chosen were captured and the lengths of the capillaries in each field were measured.

BxPC3 cells [2] = experiment: In vitro MTT cell proliferation assay; type: cell-based, human; settings: for inhibition of BxPC3 cell proliferation: vs starvation medium control
Description: (§3) Cells were left to grow for 72 h in the presence of the sdAb, then assayed for viability. Briefly, 20 μl of MTT reagent (2 mg/ml in PBS) was added to each well. After four hours, the supernatant was removed, adherent cells were lysed, and the crystals were solubilized with 100 μl dimethyl sulfoxide (DMSO, Sigma) per well. The absorbance of the formazan product was measured with a plate reader at a wavelength of 570 nm. After subtracting background absorbance, results were expressed as absorbance.
as §2

CEACAM6 N-domain [3] = biological target: T1, CEACAM6 N-domain (Homo sapiens, UniProt P40199); experiment: Affinity measurement by surface plasmon resonance (Biacore 3000); design: made in house; host or cells: E. coli; settings: SPR, CEACAM6 immobilized, 1:1 Langmuir binding model
T1 sequence (P40199 35-142 limits assumed): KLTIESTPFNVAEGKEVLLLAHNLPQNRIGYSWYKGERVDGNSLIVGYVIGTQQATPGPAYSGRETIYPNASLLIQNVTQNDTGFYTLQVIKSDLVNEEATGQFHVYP
Description: 209 RUs of CEACAM6 and 1746 RUs of Ovalbumin (as reference protein) were immobilized on research grade sensor chip CM5 (GE HealthCare). Immobilizations were performed with an amine-coupling kit (GE Healthcare) and carried out at 50 μg/ml CEACAM6 in 10 mM Acetate, pH 4 (GE Healthcare) and 50 μg/ml of Ovalbumin in 10 mM Acetate, pH 4.5. 120 μL of the sdAb at concentration of 1 nM to 60 nM were injected over the surfaces at a flow rate of 40 μl/min. Analyses were carried out at room temperature in HBS-EP, 10 mM HEPES pH 7.4, 150 mM NaCl, 3 mM EDTA and 0.005% surfactant P20 (GE Healthcare). Regeneration was performed with running buffer (HBS-EP). Data were analyzed with BIAevaluation software 4.1.
One hundred twenty microliters of CEACAM6 recombinant protein at concentration of 0.1 nM to 200 nM was injected over the surfaces at a flow rate of 40 μl min-1. Analyses were carried out at room temperature in HBS-EP comprising 10 mM HEPES pH 7.4, 150 mM NaCl, 3 mM EDTA and 0.005% surfactant P20 (GE Healthcare). Regeneration was performed with HBS-EP used as running buffer. The data were analyzed by using BIAevaluation software 4.1.

A549 cells [4] = experiment: Flow cytometry with FITC-labelled sdAb; type: cell-based, human; settings: FITC-labelled 2A3, 5 μg/ml, fixed A549 cells, FACS
Description: (§4) For flow cytometry, purified sdAbs were labelled with FITC as instructed by the manufacturer (Invitrogen). Different cell lines were grown as a monolayer until they were approximately 80% confluent. After fixing by 10% formaldehyde in PBS for 10 minutes, cells were washed with PBS then incubated at room temperature with different FITC-labelled sdAbs. After one hour of incubation, cells were washed twice with PBS to remove unbound sdAbs and the cells were analyzed by flow cytometry using a FACS Canto flow cytometer (BD Bio-sciences).

LS174T cells = experiment: Flow cytometry with FITC-labelled sdAb; type: cell-based, human; settings: FITC-labelled 2A3, 5 μg/ml, fixed LS174 cells, FACS
Description: as §4

BxPC3 cells [5] = experiment: Flow cytometry with FITC-labelled sdAb; type: cell-based, human; settings: FITC-labelled 2A3, 5 μg/ml, fixed BxPC3 cells, FACS
Description: as §4

A549 cells [6] = experiment: In vitro MTT cell proliferation assay; type: cell-based, human; settings: 125 μg/ml antibody
Description: as §3

LS174 cells = experiment: In vitro MTT cell proliferation assay; type: cell-based, human; settings: 125 μg/ml antibody
Description: as §3

CEACAM6 N-domain [7] = biological target: T1, CEACAM6 N-domain
Description: Maxisorb 96-well microtiter plates (Nunc) were coated with 2 μg/ml recombinant CEACAM6 protein (N-domain) overnight at 4° C. in phosphate-buffered saline (PBS). 2% fat-free dry milk solution in PBS was used for 2 h at room temperature to block the residual protein-binding sites in the wells. Serial diluted serum or soluble recombinant sdAbs were added to the wells, which were incubated at 37° C. for 24 hr. Detection of llama IgGs and sdAb was performed with goat anti-llama IgG (Bethyl Lab, Montgomery, Tex.), horseradish peroxidase anti-goat conjugate (Cedarlane, Burlington, ON) and the corresponding substrate KPL for peroxidase. The reaction was stopped by adding 1 M H3PO4 and the absorption at 405 nm was measured.
The sdAb was incubated in mouse serum and the residual binding capacity was measured by ELISA then compared with the same antibody that was not incubated in serum.

BxPC3 tumor [8] = experiment: Ex vivo biodistribution (γ-counter); settings: 64Cu-DOTA-labelled, 24 hr p.i., n=4
Description: Blood, tumor, major organs, and tissues were collected and wet-weighed. The radioactivity in the wet whole tissue was measured with a γ-counter (Packard). The results were expressed as percentage of injected dose per gram of tissue (% ID/g) for a group of 4 animals. For each mouse, the radioactivity of the tissue samples was calibrated against a known aliquot of the injected radiotracer and normalized to a body mass of 20 g. Values were expressed as mean±SD (n=4/group).

BxPC3 tumor [9] = experiment: Small animal PET imaging and ROI analysis
Description: Subcutaneous BxPC3 tumor model was established in 5 to 6-week-old female athymic nude mice obtained from Harlan (Indianapolis, Ind.); 5×10^6 cells suspended in 50 μl of phosphate buffered saline (PBS) were injected and the mice underwent small animal PET studies when the tumor volume reached 100-200 mm^3 (3-4 weeks after inoculation). PET scans and image analysis were performed using an Inveon microPET scanner (Siemens Medical Solutions). About 3.7 MBq (100 μCi/5 μg) of ^64Cu-DOTA-Abs were administered via tail vein injection under isoflurane anesthesia. Five-minute static PET images were acquired at different time points post-injection (p.i.; n=4/group). The images were reconstructed using a two-dimensional ordered-subset expectation maximization (2D OSEM) algorithm, and no correction was applied for attenuation or scattering. For each scan, regions of interest (ROIs) were drawn over the tumor and major organs using vendor software (ASI Pro 5.2.4.0) on decay-corrected whole-body coronal images. The radioactivity concentrations (accumulation) within the tumors, muscle, liver, and kidneys were obtained from mean pixel values within the multiple ROI volume and then converted to MBq per milliliter per minute using the calibration factor determined for the Inveon PET system. […]

BxPC3 cells [10] = experiment: Cell uptake and efflux of 64Cu-labelled tracer; type: cell-based, human
Description: (§5) Cell uptake, internalization, and efflux of ^64Cu-DOTA-2A3-Fc were performed with BxPC3 and UM-SCC-22B tumor cells (negative control). For cell uptake, the cells were seeded into 24-well plates at a density of 1×10^5 cells per well and incubated with 18.5 kBq (0.5 μCi/5 ng)/well of ^64Cu-labelled tracer at 37° C. for 15, 30, 60, and 120 min. The cells were then washed three times with chilled PBS and lysed with 500 μL 0.1 M NaOH. For efflux studies, about 18.5 kBq (0.5 μCi)/well of ^64Cu-DOTA-2A3-mFc were first incubated with BxPC3 cells in 24-well plates for 2 h at 37° C. The cells were washed three times with chilled PBS and allowed to stand with fresh buffer. At various time points, the medium was removed and the cells washed three times with chilled PBS. The cells were then lysed with 500 μL 0.1 M NaOH. The cell lysate was collected and the remaining radioactivity was measured in a γ counter (Packard, Meriden, Conn.). The cell uptake, and efflux were expressed as the percentage of the added dose (% AD) after decay correction. All experiments were performed with triplicate wells.

UM-SCC-22B cells = experiment: Cell uptake of 64Cu-labelled tracer; type: cell-based, human; settings: 22B cells compared with BxPC3 cells
Description: as §5

Nc1ccn([C@@H]2O[C@H](CO)[C@@H](O)C2(F)F)c(=O)n1 [gemcitabine, reference compound]
increase of MMP-2 activity (MMP-2; at high dosages): ~10% | effect on MMP-2 activity (MMP-2; media from treated BxPC3 cells): does not affect MMP-2 and MMP-9 activity | increase of MMP-9 activity (MMP-9; at high dosages): ~10% | effect on MMP-9 activity (MMP-9): slightly increased MMP-9 activity | effect on invasion (BxPC3 cells [1]): did not affect angiogenesis or invasion | effect on angiogenesis (HUVECs; culture medium from treated BxPC3 cells): inhibitory effects on angiogenesis were not seen | IC50 (BxPC3 cells [2]; Homo sapiens, BXPC-3, 72 h, MTT, n=5): 12 nM

B1: 2A3: anti-CEACAM6 llama single domain antibody (sdAb), SEQ ID NO:4 (protein)
VHH: QVKLEESGGGLVQAGGSLRLSCRTSGRTNSVYTMGWFRQAPGKEREFVAQIMWGAGTNTHYADSVKGRFTISRDSAESTVYLQMNSLKPEDTAVYYCAANRGIPIAGRQYDYWGQGTQVTVSS
modifications: Anti-CEACAM6 sdAb
dissociation rate (kd) (CEACAM6 N-domain [3]): 0.0053 s⁻¹ | association rate (ka) (CEACAM6 N-domain [3]; sdAb 1 nM to 60 nM, room temperature): 1.1e+06 M⁻¹ s⁻¹ | effect on MMP-2 activity (MMP-2; 5 μM dosage): did not influence MMP-2 activity significantly | effect on MMP-2 activity (MMP-2; media from treated BxPC3 cells): not MMP-2 activity | MMP-9 activity reduced to (MMP-9; 5 μM dosage): 25% | culture medium MMP-9 activity down-regulated by (MMP-9; 2A3-treated BxPC3 compared to non-treated cells): 33% | effect on MMP-9 activity (MMP-9): reduce the activity of MMP-9 | BxPC3 invasiveness reduced by (BxPC3 cells [1]): ~73% | invasiveness of treated cells decreased to (BxPC3 cells [1]): 27.4±8.4% | cells stained positive (A549 cells [4]): ~20% | cells stained positive (LS174T cells): about 16% | cells stained positive (BxPC3 cells [5]): approximately 90% | inhibition of tubule formation (endothelial cell angiogenesis) (HUVECs): 21% | inhibition of BxPC3 cell proliferation (BxPC3 cells [2]; 50 μg/ml): approximately 27% | effect on BxPC3 proliferation (BxPC3 cells [2]; 125 μg/ml antibody, vs irrelevant sdAb BSA12, p<0.0001): inhibits BxPC3 proliferation in vitro | effect on A549 growth (A549 cells [6]): little effect on their growth | effect on LS174 growth (LS174 cells): little effect on their growth | residual binding capacity after incubation in mouse serum (CEACAM6 N-domain [7]): retained its full binding capacity

B2: 2A3-Fc: 2A3 sdAb fused to the mouse Fc2b fragment; heavy chain antibody (protein)
chain: QVKLEESGGGLVQAGGSLRLSCRTSGRTNSVYTMGWFRQAPGKEREFVAQIMWGAGTNTHYADSVKGRFTISRDSAESTVYLQMNSLKPEDTAVYYCAANRGIPIAGRQYDYWGQGTQVTVSS
modifications: left off: a dimerising Fc or GST
notes: heavy chain antibody
effect on MMP-2 activity (MMP-2; media from treated BxPC3 cells): not MMP-2 activity | effect on MMP-9 activity (MMP-9): reduce the activity of MMP-9 | invasiveness of treated cells decreased to (BxPC3 cells [1]): 27.4±4.8% | BxPC3 tumor uptake, ex vivo (BxPC3 tumor [8]): 95.4±29.3 % ID/g | inhibition of tubule formation (endothelial cell angiogenesis) (HUVECs): 49% | inhibition of BxPC3 cell proliferation (BxPC3 cells [2]; 360 μg/ml): 55% | tumor uptake (BxPC3 tumor [9]; 64Cu-DOTA-labelled, PET ROI, 24 hr p.i.): 98.2±6.12 % ID/g | share of the total injected dose distributed to tumor region (BxPC3 tumor [9]; 24 hr after injection, average tumor size 184 mm^3): Roughly 18%

B3: ^64Cu-DOTA-2A3-Fc: 2A3-Fc conjugated with DOTA and labelled with 64Cu, PET tracer (conjugate)
chain: QVKLEESGGGLVQAGGSLRLSCRTSGRTNSVYTMGWFRQAPGKEREFVAQIMWGAGTNTHYADSVKGRFTISRDSAESTVYLQMNSLKPEDTAVYYCAANRGIPIAGRQYDYWGQGTQVTVSS
modifications: left off: a dimerising Fc or GST
total cell uptake (BxPC3 cells [10]; 2 hr incubation, 37° C.): 10.13±0.05 % of total added dose | radioactivity retained on the cells (efflux) (BxPC3 cells [10]; after 2 h incubation in medium devoid of radioactivity): more than 65% | cell uptake (UM-SCC-22B cells): much lower uptake
